The source of these data is US20250186614A1, “COMPACT DRUG RESPONSIVE DOMAINS FOR REGULATION OF FUNCTION/ABUNDANCE AND DELIVERY OF POLYPEPTIDE PAYLOADS” (OBSIDIAN THERAPEUTICS, INC., priority 2022, published 2025).

Where two headings read alike, the source gives them in different places.

The nature of the assay: Example 4: dose response of FKBP constructs 160-255, Ec50, Ec90 and fold change (raw and normalized to mCherry). In kind it is cell-based. The conditions noted are these: for FC (fold change): fold change during initial analysis. The protocol:
Additional experiments were performed for constructs FKBP-160-292.

Setting [1] is: FKBP constructs 160-255, not normalized, read-out: EC90.
[2] abbreviates: normalized to mCherry, read-out: EC90 (Norm).

B1: FKBP-230: FKBP13 DRD-AcGFP construct of Table 10 (protein)
chain: HCPIKSRKGDVLHMHYTGKLEDMTEFDSSLPRNQPFVFSLGTGEVIKGWDQGLLGMCEGEKRKLVIPSELGYGERGWPPKIPGGATLVFEVELLKIER
modifications: Description of sequence: Construct Name: FKBP-230; Mutation(s): Q72R Q84E A117W DRD G63M
What is called EC90 is the point of the concentration-response curve where the effect stands at 90%. For the molecule B1, the “FC (fold change)” value was 49.0. Besides, under setting [1], the concentration for an effect of 90% (EC90) is 997 nM. In addition, the concentration for an effect of 90% (EC90) under setting [2] turned out to be 890 nM.

B2: FKBP-231 (protein)
chain: HCPIKSRKGDVLHMHYTGKLEDMTEFDSSLPRNQPFVFSLGTGERIKGWDQGLLGMCEGEKRKLVIPSELGYGERGWPPKIPGGATLVFEVELLKIER
modifications: Description of sequence: Construct Name: FKBP-231; Mutation(s): Q72R Q84E A117W V85R DRD G63M
As to B2, the “FC (fold change)” value is 39.9. Under setting [1], the EC90 came out at 396 nM. Besides, the 90% effect concentration (EC90) under setting [2] was determined as 399 nM.

B3: FKBP-234 (protein)
chain: HCPIKSRKGDVLHMHYTGKLEDGTEFDSSLPRNQPFVFSLGTGERIKGWTQGLLGMCEGEKRKLVIPSELGYGERGWPPKIPGGATLVFEVELLKIER
modifications: Description of sequence: Construct Name: FKBP-234; Mutation(s): Q72R Q84E A117W V85R DRD D90T
As to B3, the “FC (fold change)” value turned out to be 23.5. Besides, the EC90 under setting [1] came to 8760 nM. The EC90 under setting [2] is 12100 nM.

B4: FKBP-236 (protein)
chain: HCPIKSRKGDVLHMHYTGKLEDGTEFDSSLPRNQPFVFSLGTGEVIKGWDQGLLGMCEGEKRKLVIPSELGYNERGWPPKIPGGATLVFEVELLKIER
modifications: Description of sequence: Construct Name: FKBP-236; Mutation(s): Q72R Q84E A117W DRD G113N
B4: the “FC (fold change)” value worked out at 39.1. In addition, under setting [1], the concentration for an effect of 90% (EC90) was found to be 1810 nM. Under setting [2], the EC90 was 1960 nM.

B5: FKBP-235 (protein)
chain: HCPIKSRKGDVLHAHYTGKLEDGTEFDSSLPRNQPFVFSLGTGERIKGWTQGLLGMCEGEKRKLVIPSELGYGERGWPPKIPGGATLVFEVELLKIER
modifications: Description of sequence: Construct Name: FKBP-235; Mutation(s): Q72R Q84E A117W V85R DRD D90T M54A
Turning to B5, the “FC (fold change)” value was determined as 23.5. The EC90 under setting [1] was found to be 9980 nM. The EC90 under setting [2] is 11100 nM.

B6: FKBP-232 (protein)
chain: HCPIKSRKGDVLHAHYTGKLEDMTEFDSSLPRNQPFVFSLGTGERIKGWDQGLLGMCEGEKRKLVIPSELGYGERGWPPKIPGGATLVFEVELLKIER
modifications: Description of sequence: Construct Name: FKBP-232; Mutation(s): Q72R Q84E A117W V85R DRD G63M M54A
For B6, the “FC (fold change)” value was determined as 35.0. Besides, the EC90 under setting [1] is 938 nM. For the same molecule, the EC90 under setting [2] is 1090 nM.

B7: FKBP-233: FKBP13 DRD-AcGFP construct of Table 10 (protein)
chain: HCPIKSRKGDVLHMHYTGKLEDGTEFDSSLPRNQPFVFSLGTGEVIKGWTQGLLGMCEGEKRKLVIPSELGYGERGWPPKIPGGATLVFEVELLKIER
modifications: Description of sequence: Construct Name: FKBP-233; Mutation(s): Q72R Q84E A117W DRD D90T
With B7, the “FC (fold change)” value is reported as 47.2. The EC90 under setting [1] was determined as 272 nM. Also, the concentration for an effect of 90% (EC90) under setting [2] was found to be 335 nM.
